Blank lines part the entries; values can stand above or below the binder they belong to. Starred links: 1 amine or outer side, 2 acyl side, 3 side chain; linkers in the order of their positions; H or OH if unused. Positions of bridges follow the written chain, without caps; N, C: chain ends. Non-standard residues stand in square brackets, D forms with d. Primed or numbered codes have the meaning given here. PyrS2″ = (S)-3-amino-1-((pent-4-en-1-yloxy)carbonyl)pyrrolidine-3-carboxylic acid (stapling residue), C=CCCCOC(=O)N1CC[C@@](N[*:1])(C(=O)[*:2])C1; B5(4) = 2,2-bis(4-pentenyl)glycine = 2-amino-2-(pent-4-en-1-yl)hept-6-enoic acid (stitching residue), C=CCCCC(CCCC=C)(N[*:1])C(=O)[*:2]; TfeGA = (S)-2-amino-3-((carboxymethyl)(2,2,2-trifluoroethyl)amino)propanoic acid, O=C([C@H](CN(CC(=O)[*:3])CC(F)(F)F)N[*:1])[*:2]; B5(3) = 2,2-bis(4-pentenyl)glycine (stitching residue), C=CCCCC(CCCC=C)(N[*:1])C(=O)[*:2]; Phe(3-COOH) = N[C@@H](Cc1cccc(C(=O)O)c1)C(=O)O; Phe(2-Cl) = N[C@@H](Cc1ccccc1Cl)C(=O)O; Bta = N[C@@H](Cc1csc2ccccc12)C(=O)O; αAllylPro = C=CC[C@@]1(C(=O)O)CCCN1; tBuAla = CC(C)(C)C[C@H](N)C(=O)O; 3Thi = N[C@@H](Cc1ccsc1)C(=O)O
How the values were obtained:
Assay in all cases: cell-based or functional assay
[1] = molecular target: T1, beta-catenin in DLD1 TCF/LEF luciferase reporter cells (Homo sapiens (Human), UniProt P35222 1-781)
T1 sequence: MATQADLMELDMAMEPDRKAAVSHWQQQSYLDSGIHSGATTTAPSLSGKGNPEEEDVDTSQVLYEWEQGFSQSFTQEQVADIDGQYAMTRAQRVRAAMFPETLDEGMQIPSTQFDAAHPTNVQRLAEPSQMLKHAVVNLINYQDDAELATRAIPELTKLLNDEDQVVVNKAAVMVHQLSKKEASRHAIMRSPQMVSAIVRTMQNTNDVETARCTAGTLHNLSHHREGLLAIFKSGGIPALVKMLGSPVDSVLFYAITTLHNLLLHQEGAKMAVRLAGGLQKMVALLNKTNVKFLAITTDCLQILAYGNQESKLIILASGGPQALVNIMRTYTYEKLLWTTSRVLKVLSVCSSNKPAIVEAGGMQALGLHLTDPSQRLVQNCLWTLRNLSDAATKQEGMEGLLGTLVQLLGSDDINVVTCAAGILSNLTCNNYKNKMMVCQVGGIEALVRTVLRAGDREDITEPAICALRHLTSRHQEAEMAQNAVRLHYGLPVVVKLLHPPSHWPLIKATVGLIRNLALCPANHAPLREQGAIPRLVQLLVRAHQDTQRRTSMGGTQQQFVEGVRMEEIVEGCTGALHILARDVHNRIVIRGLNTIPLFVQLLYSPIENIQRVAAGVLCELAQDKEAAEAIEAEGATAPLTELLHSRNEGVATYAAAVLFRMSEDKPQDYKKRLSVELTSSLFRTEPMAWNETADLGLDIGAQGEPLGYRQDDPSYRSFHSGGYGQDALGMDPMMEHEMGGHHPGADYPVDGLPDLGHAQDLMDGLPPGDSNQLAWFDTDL

B-cat-Halo = molecular target: T2, B-cat-Halo (UniProt P35222 1-781)
T2 sequence (looked up): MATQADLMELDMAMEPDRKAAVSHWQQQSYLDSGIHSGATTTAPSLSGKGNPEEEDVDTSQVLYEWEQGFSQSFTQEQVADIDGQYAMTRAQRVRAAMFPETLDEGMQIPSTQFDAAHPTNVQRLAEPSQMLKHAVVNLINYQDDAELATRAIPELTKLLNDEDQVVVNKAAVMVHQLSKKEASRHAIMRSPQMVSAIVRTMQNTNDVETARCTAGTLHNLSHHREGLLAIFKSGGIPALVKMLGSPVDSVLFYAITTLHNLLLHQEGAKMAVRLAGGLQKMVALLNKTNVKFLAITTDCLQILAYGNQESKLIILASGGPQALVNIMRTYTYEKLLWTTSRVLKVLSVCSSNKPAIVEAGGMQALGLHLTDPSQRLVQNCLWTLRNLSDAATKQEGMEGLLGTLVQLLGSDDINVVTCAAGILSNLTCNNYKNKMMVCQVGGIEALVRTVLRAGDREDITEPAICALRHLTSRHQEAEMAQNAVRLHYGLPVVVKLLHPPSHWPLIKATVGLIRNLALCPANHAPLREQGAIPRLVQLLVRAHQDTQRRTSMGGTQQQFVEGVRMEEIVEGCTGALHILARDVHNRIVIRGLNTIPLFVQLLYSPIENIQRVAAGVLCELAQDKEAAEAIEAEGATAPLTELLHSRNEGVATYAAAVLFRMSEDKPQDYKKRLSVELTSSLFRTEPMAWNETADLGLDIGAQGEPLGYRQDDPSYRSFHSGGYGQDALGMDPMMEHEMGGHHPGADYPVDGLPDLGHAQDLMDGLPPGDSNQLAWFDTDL

[2] = molecular target: T3, beta-catenin in DLD1 TCF/LEF luciferase reporter cells (UniProt P35222 1-781)
T3 sequence (looked up): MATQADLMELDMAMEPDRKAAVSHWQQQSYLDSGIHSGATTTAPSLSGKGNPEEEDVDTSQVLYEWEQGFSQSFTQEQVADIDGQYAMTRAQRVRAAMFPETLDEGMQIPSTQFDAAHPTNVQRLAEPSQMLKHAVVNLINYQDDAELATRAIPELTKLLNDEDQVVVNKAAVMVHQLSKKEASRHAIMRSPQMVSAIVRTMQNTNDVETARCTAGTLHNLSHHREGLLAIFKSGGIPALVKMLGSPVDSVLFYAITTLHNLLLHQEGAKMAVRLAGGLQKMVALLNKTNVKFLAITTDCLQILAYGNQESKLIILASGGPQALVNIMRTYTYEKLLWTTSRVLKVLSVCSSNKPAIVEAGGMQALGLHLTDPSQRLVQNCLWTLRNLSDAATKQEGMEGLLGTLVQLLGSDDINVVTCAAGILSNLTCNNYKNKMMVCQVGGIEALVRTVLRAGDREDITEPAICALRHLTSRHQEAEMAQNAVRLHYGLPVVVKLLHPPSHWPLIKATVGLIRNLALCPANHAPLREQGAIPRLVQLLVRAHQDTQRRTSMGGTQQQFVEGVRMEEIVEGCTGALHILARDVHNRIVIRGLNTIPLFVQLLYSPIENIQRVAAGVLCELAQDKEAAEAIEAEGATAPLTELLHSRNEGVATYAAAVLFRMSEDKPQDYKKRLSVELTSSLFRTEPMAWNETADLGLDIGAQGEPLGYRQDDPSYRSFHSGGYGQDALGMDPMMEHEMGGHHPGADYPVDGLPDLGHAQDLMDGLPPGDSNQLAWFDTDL

[3] = molecular target: T4, B-cat-Halo (beta-catenin HaloTag NanoBRET construct expressed in HEK293 cells) (UniProt P35222 1-781)
T4 sequence (looked up): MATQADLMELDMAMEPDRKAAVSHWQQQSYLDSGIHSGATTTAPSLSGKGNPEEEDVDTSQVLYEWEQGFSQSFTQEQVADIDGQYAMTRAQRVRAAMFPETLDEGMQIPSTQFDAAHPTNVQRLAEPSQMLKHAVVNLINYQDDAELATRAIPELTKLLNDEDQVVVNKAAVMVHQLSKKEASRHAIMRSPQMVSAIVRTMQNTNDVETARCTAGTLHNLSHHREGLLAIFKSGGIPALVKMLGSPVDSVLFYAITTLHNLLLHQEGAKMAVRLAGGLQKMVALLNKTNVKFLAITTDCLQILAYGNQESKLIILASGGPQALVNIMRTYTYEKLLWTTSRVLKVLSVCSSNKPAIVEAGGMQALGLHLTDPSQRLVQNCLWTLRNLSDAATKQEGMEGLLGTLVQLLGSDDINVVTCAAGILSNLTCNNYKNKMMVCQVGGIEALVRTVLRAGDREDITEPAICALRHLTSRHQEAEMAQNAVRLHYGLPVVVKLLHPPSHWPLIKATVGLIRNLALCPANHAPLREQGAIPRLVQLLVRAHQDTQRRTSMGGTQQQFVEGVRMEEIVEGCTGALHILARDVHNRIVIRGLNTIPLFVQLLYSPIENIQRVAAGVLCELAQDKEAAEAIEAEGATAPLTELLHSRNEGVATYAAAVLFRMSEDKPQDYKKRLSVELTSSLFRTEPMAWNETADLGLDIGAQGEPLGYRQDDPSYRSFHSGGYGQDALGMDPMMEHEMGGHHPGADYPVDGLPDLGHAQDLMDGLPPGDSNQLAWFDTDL

[4] = molecular target: T5, beta-catenin in DLD1 TCF/LEF luciferase reporter cells (UniProt P35222 1-781); remark: listed apart in the source
T5 sequence (looked up): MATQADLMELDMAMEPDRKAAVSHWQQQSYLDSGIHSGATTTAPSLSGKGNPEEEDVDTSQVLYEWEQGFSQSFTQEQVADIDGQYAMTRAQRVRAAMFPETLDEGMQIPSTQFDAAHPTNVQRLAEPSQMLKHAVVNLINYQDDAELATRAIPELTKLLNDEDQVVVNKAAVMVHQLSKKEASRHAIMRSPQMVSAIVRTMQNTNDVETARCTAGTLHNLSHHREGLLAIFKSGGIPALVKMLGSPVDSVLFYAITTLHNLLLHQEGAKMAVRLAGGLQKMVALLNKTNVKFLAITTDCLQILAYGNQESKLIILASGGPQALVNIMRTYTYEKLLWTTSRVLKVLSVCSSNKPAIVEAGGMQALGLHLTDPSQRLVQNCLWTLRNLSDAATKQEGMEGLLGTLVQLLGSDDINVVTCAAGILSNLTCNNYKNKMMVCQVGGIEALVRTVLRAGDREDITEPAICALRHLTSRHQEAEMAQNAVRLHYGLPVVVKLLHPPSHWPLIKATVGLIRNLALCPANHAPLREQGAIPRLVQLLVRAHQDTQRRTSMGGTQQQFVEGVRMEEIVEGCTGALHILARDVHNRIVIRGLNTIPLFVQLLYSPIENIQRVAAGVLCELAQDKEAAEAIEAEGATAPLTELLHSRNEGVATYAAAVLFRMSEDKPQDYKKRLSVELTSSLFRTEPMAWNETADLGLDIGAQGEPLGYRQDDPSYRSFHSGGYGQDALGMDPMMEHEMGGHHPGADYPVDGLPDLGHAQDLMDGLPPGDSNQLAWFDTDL

DLD1 4% Abs IC50 [1]: 1.9 µM
Binder: Ac-[αAllylPro]D[tBuAla][B5(3)]D[Phe(3-COOH)]AAFL[PyrS2″][Phe(2-Cl)][Bta]NAA[dA]-NH2 (staple 1-4, 4-11) [I-2041]

NanoBRET Abs IC50 (B-cat-Halo): 3.9 µM | DLD1 4% Abs IC50 [2]: 1.9 µM
Binder: Ac-[αAllylPro]D[tBuAla][B5(4)]D[TfeGA]AAFL[PyrS2″][3Thi][Bta]A-NH2 (staple 1-4, 4-11) [I-1710]

NanoBRET Abs IC50 [3]: 2.5 µM | DLD1 4% Abs IC50 [4]: 1.4 µM
Binder: Ac-[αAllylPro]D[tBuAla][B5(3)]D[TfeGA]AAFL[PyrS2″][3Thi][Bta][Me2Gln]A-NH2 (staple 1-4, 4-11) [Ac-PL3-Asp-Npg-B5-Asp-TfeGA-Ala-Ala-Phe-Leu-PyrS2-3Thi-BztA-Me2Gln-Ala-NH2]

Source: US20240116985A1 (published 2024)
